Measured values taken from the RNAGym collection of RNA variant scans (doi:10.1021/acssynbio.7b00057).

B1: Pistol ribozyme (parent)
chain: GGGUCGUUGUUCCAUAAUCGCGUGGAUAUGGCACGCAAGUUUCUACCGGGCACCGUAAAUGUCCGACUGGAGCCGUUCGGGCGGCUAUAAACAGACCUCAGGCCCGAAGCGUGGCGGCACCUGCCGCCGGUGGUAAAAAAGAUCGGAAGAGCACACGUCU

Variants of: B1
Test: aptazyme ON/OFF ratio, guanine; higher = stronger switching; co-transcriptional cleavage with and without guanine

Variant	aptazyme ON/OFF ratio
U7A G9C U11G C13G	1.07
U8G G9U U11C C12G C13U	1.13
U7A U8A G9U U10C U11C C13U	1.04
U7C U8G G9C U10C U11G C12A C13A	1.12
U8G G9C U10A U11A C12A C13A	1.12
U8A G9U U10A U11G C13U	1.25
U7A U8G U10A C12A	1.23
U7C U8G G9A U10C U11G C13A	1.28
U7C U8G G9C U10A U11A C12A	1.22
U7G U8G G9A U11A C12G C13A	1.03
U7G U10G U11A C12U C13U	1.08
U10G	1.88
U8C G9A U10G U11A C13G	1.04
U8A G9A U10C U11A C12U C13U	1.33
U8A U10C C12G C13A	1.19
U7G U8A G9U U10A U11C C12U C13U	1.01
U8C G9A U11C C13U	1.04
U7G G9U U10A U11A C12G C13U	1.42
U7G G9A U10A U11A C12U C13U	1.17
U7A G9C U10A U11C C12U C13A	1.1
U7C U8C G9A U10C U11C C13A	1.08
U7C G9C U10A U11A C13U	1.05
U7A G9A U10A U11A C12G C13G	1.21
U7C U8C G9U U10A U11C C13G	1.07

Variant	aptazyme ON/OFF ratio
U7C G9A U11G C13A	1.46
U7C U8G G9U U11C C12G	1.32
U7G G9U U10C U11G C12U C13U	1.22
U7G U8A G9A U11G C12G C13G	1.14
U7G U8A G9A U10C C12G C13G	1.11
U7G U8A G9A U10G U11A C13A	1.06
U7A U8C G9C U11A C12U C13U	1.07
U7C U8G G9C U10A U11C	1.03
U8A G9U U10C U11C C12G C13G	1.08
U7G U8C U10C C12G C13G	1.24
U7A U8C G9C U11A C12G C13A	1.09
U8C U10A C13A	1.07
U7G U8A G9A U11A C12A C13G	1.08
G9C U10C U11A C12A	1.07
U7G U8G G9A U10A C12A C13G	1.04
U8G G9C U10G C13A	1.27
U8C U10A U11C C12G C13A	1.16
U7G U8C U11G C12G C13U	1.12
U7G U8C G9U U10A C12A	1.88
U7A U8C G9C U10A U11G C13U	1.09
U7G U8G G9A U10A U11A C12A C13U	1.38
U7G G9A U10A U11G C12U	1.24
U7C U8G G9C U10G U11G C12U C13A	1.06
U7A U8C G9C U10A U11G C12G C13G	1.13

Variant	aptazyme ON/OFF ratio
U7C U8G G9U U10C U11C C13A	1.03
U8C G9A U11G C13A	1.23
U7A U8G U10G C12A	1.17
U7C U8C G9C U10G U11A C12U C13G	1.07
U7A U8G G9C U10C U11G C12A C13G	1.15
G9A U11C	1.12
U7A U11A C12U	1.26
U8A G9C U10G U11A C12U	1.06
U7A U8A G9U U10C U11G C13G	1.17
U8A G9C U10G C12G C13G	1.15
U7A U8G G9C U10C U11G	1.26
U7A U8G G9C U10G U11C C13A	1.1
U7G U8G G9A U10A U11A C12A	1.19
G9U U10A U11G C13A	1.56
U8A G9A U10C C12G C13U	1.22
U7C U8G G9A U10C U11G C12A C13A	1.12
U7C U8A U11A C13A	1.15
U7C U8A G9U U10G U11C C12A C13A	1.18
U7A U8G G9A U10A U11A C12A C13G	1.13
U8G G9C U10A U11C C12G C13U	1.14
U7A U8A G9A U10G C12G C13U	1.31
U7G U10A C12G C13U	1.17
U8G G9U C13A	1.39
G9C U10C	1.52

Variant	aptazyme ON/OFF ratio
U7C U11A C12U C13U	1.16
U7A G9A U10C C12A C13G	1.22
U8C G9A U10G U11C C12U	1.07
U7C U8A G9C U10G	1.97
U7C U8C U10G	1.98
U8A U11G C12G C13U	1.47
U10C U11A C12G	1.47
U10G U11C C12A C13U	1.4
U8A G9A U10A U11G C12A C13U	1.11
U7G G9A C12G C13U	1.18
U7G U8A G9U U10A U11G C12U C13U	1.02
U7C G9A U10G C12U C13U	1.11
U7A U8C U11G C12G C13A	1.04
U7C U8G G9A U10G U11G C12G C13A	1.42
U8G G9U U10A U11G C12A C13A	1.05
U8G U10G U11G C12A C13A	1.08
U8C G9A U10C U11A C12U C13G	1.33
U7A U8A G9U U10C U11A C12A C13U	1.23
U7G U8C G9C U10G U11C C12U	1.12
U7G U10A U11A C12G C13G	1.16
U7A U8G U10G U11C C12A	1.21
U7G U8C G9U U10A U11C C12G C13A	1.14
U7A G9U U10C C12A C13A	1.21
U7A U8A G9A U10G U11G C13U	1.07

Variant	aptazyme ON/OFF ratio
U7G U10G U11A C12U C13A	1.1
U7A U8A G9A U11C C12U C13A	1.24
U7G U8A U10G U11C C13G	1.16
U7G G9C U10C U11C C12G C13U	1.06
U7A U8C G9C U10G U11G C12A C13G	1.07
U7C U8C G9C U10C U11C C12A C13U	1.02
U7C U8C G9U U10G U11C C12U C13A	1.12
U8G G9U U10C U11G C13A	1.04
U7C U8G G9U U10G U11G C12G	1.22
U7G U8C U10A U11A C12G C13U	1.26
U8C U11C C12U C13U	1.33
U7G U8G G9C U10C U11C C12G	1.05
U8C G9U U10G U11G C13U	1.27
U7C G9U U11G C12G C13A	1.18
U7G U8C G9U U10C U11A	3.02
U7C U8A G9U U10G C12U C13G	1.25
U7G U10G U11A C12G	1.08
U7C U8A U10G U11G	1.24
G9A U10G U11A C13G	1.04
U7C U8G G9U U10A U11C C13U	1.02
U8C U10A U11C C12U C13U	1.06
U8G U10A U11A C12G	1.14
U7A U8A G9U U10G U11C C12A C13G	1.15
U7C U8G G9A U10C U11C C12U	1.01

Variant	aptazyme ON/OFF ratio
U7C U8A G9A U11A C12U C13U	1.27
U8G G9A U10A U11G C12U	1.3
U7A U8G U10G C13A	1.26
U7C U8A G9U U10G U11C C12U C13U	1.22
U7A G9C U10A U11A C13G	1.03
U7A G9U U10C U11A C12G	1.23
U8A G9A U10C C12A	1.15
U7A U8G U10C U11G C13A	1.23
U8A G9A U10A U11A C12U C13G	1.1
U7A U8A U10A U11G C12G C13G	1.6
U7G U8G G9C U10G U11C C12A C13U	1.12
U7G G9A U10A U11A C13A	1.14
U7G U8G U10G U11G C13U	1.37
U7A G9A U10G U11C C12U C13U	1.21
U7C U8G G9A U10A U11A C12A C13A	1.2
U8G G9U U11C C12A C13A	1.09
U7A U10A U11A C12G	1.18
U7A U8C G9A U10C U11G C12U C13G	1.35
U8A G9U U10A C13U	1.2
U8G G9A U10A U11A C13A	1.12
U7A U10C	4.51
U7A U8G G9A U11A C12G C13U	1.25
U7G U8G G9U U10G U11A C12A C13G	1.06
G9C U10A U11A C12G C13G	1.27

Variant	aptazyme ON/OFF ratio
U7C G9A U11C C13U	1.06
U7C G9A U10C U11C C12A C13G	1.15
U8C U10A U11C C12U C13G	1.07
U8A G9C U10G U11C C12A C13A	1.17
U7A U8C G9A U10G U11A C12G	1.27
U8C G9A U10C C12G C13U	1.25
U7C U11G C12A	1.18
U7G U8C U10A U11G C12A C13U	1.19
U7A U8A G9A U10C U11G C12G C13U	1.08
U8G G9C U10G C12U	1.06
U7C U8A G9C U10A U11G C12A	1.06
U7C G9A U10A C12A	1.15
U7A U8G G9A U11A C13A	1.24
U7A U10C U11C C13U	1.03
U7G U8G G9A U11C C12A C13A	1.39
U7C U8A U10G U11G C12U C13G	1.22
U7G U8G U10A C12A	1.28
U8C G9C U10G U11A C12U C13U	1.04
U7A U8G G9A U11A C12A C13A	1.39
U7G U8A G9U U10A C12G C13G	1.07
U7G G9U U10C U11A C12G C13U	1.26
U7C U8G U10A U11G C12G C13A	1.11
U7C U8G G9U U10A C13G	1.08
